From publication PMC7955110, “Cryo-EM structure of amyloid fibrils formed by the entire low complexity domain of TDP-43” (Nature Communications, 2021)

Molecular target: the molecule itself
Assay: cryo-EM structure; amyloid fibrils formed at 30 uM protein in 20 mM sodium acetate pH 4.0, 37 °C with rotation, four rounds of sequential seeding (10% w/w sonicated fibrils); helical reconstruction of twisted fibrils, 3.2 Å

B1: TDP-43 low complexity domain (transactive response DNA-binding protein of 43 kDa, C-terminal low-complexity domain) (domain or fragment, UniProt Q13148 267-414, looked up)
chain: NRQLERSGRFGGNPGGFGNQGGFGNSRGGGAGLGNNQGSNMGGGMNFGAFSINPAMMAAAQAALQSSWGMMGMLASQQNQSGPSGNNQNQGNMQREPNQAFGSGNNSYSGSNSGAAIGWGSASNAGSGSGFNGGFGSSMDSKSSGWGM
notes: TDP-43, entire C-terminal low-complexity domain; Wild-type, non-phosphorylated; The assayed form is an amyloid fibril: a single protofilament of stacked subunits with an ordered core of residues 276-414; Five chains were built in the model; also called TDP-43 LCD; LCD; source: Rosetta (DE3) pLysS cells, purified (Ni-NTA in 8 M urea, HPLC on a C4 column), lyophilized
- binding result: binds
